Measured values: PMC4498904, “Mutagenesis Study Reveals the Rim of Catalytic Entry Site of HDAC4 and -5 as the Major Binding Surface of SMRT Corepressor” (PLoS ONE, 2015)

B1: KGC-HDAC4c (C-terminal portion of Kusabira Green protein fused with HDAC4c), wild type [human] / KGN-SRD3c (N-terminal portion of Kusabira Green protein fused with SRD3c) [human] (parent)
chain 1: PRFTTGLVYDTLMLKHQCTCGSSSSHPEHAGRIQSIWSRLQETGLRGKCECIRGRKATLEELQTVHSEAHTLLYGTNPLNRQKLDSKKLLGSLASVFVRLPCGGVGVDSDTIWNEVHSAGAARLAVGCVVELVFKVATGELKNGFAVVRPPGHHAEESTPMGFCYFNSVAVAAKLLQQRLSVSKILIVDWDVHHGNGTQQAFYSDPSVLYMSLHRYDDGNFFPGSGAPDEVGTGPGVGFNVNMAFTGGLDPPMGDAEYLAAFRTVVMPIASEFAPDVVLVSSGFDAVEGHPTPLGGYNLSARCFGYLTKQLMGLAGGRIVLALEGGHDLTAICDASEACVSALLGNELDPLPEKVLQQRPNANAVRSMEKVMEIHSKYWRCLQRTTSTAGRSLIEAQTCENEEAET
chain 2: EGGMSVTQCSKEDGRSSSGPPHETAAPKRTYDMMEGRVGRAISSASIEGLMGRAIPPERHSPHHLKEQHHIRGSITQGIPRSYVEAQEDYLRREAKLLKREGTPPPPPPSRDLTEAYKTQALGPLKLKPAHEGLVATVKEAGRSIHEIPREELRHTPELPLAPRPLKEGSITQGTPLKYDTGASTTGSKKHDVRSLIGSPGRTFPPVHPLDVMADARALERACY
B2: KGC-HDAC5c (C-terminal portion of Kusabira Green protein fused with HDAC5c), wild type [human] / KGN-SRD3c (N-terminal portion of Kusabira Green protein fused with SRD3c) [human] (parent)
chain 1: LFTTGVVYDTFMLKHQCMCGNTHVHPEHAGRIQSIWSRLQETGLLSKCERIRGRKATLDEIQTVHSEYHTLLYGTSPLNRQKLDSKKLLGPISQKMYAVLPCGGIGVDSDTVWNEMHSSSAVRMAVGCLLELAFKVAAGELKNGFAIIRPPGHHAEESTAMGFCFFNSVAITAKLLQQKLNVGKVLIVDWDIHHGNGTQQAFYNDPSVLYISLHRYDNGNFFPGSGAPEEVGGGPGVGYNVNVAWTGGVDPPIGDVEYLTAFRTVVMPIAHEFSPDVVLVSAGFDAVEGHLSPLGGYSVTARCFGHLTRQLMTLAGGRVVLALEGGHDLTAICDASEACVSALLSVELQPLDEAVLQQKPNINAVATLEKVIEIQSKHWSCVQKFAAGLGRSLREAQAGETEEAETVS
chain 2: B1 chain 2

Variants of: B1
Assay: BiFC assay (fluorescence spectrophotometer)
Details: HEK293 cells, KGN-SRD3c (1 μg) and KGC-HDAC4c mutant (1 μg), 48 hours of transfection, whole cell lysates, parent: 8, read off a plot

Variant | response
chain 1 PRFTTGLVYDTLMLKHQCTCGSSSSHPEHAGRIQSIWSRLQETGLRGKCECIRGRKATLEELQTVHSEAHTLLYGTNPLNRQKLDSKKLLGSLASVFVRLPCGGVGVDSDTIWNEVHSAGAARLAVGCVVELVFKVATGELKNGFAVVRPPGHHAEESTPMGFCYFNSVAVAAKLLQQRLSVSKILIVDWDVLHGNGTQQAFYSDPSVLYMSLHRYDDGNFFPGSGAPDEVGTGPGVGFNVNMAFTGGLDPPMGDAEYLAAFRTVVMPIASEFAPDVVLVSSGFDAVEGHPTPLGGYNLSARCFGYLTKQLMGLAGGRIVLALEGGHDLTAICDASEACVSALLGNELDPLPEKVLQQRPNANAVRSMEKVMEIHSKYWRCLQRTTSTAGRSLIEAQTCENEEAET [chain 1 H193L] | 4.3 RFU
chain 1 PRFTTGLVYDTLMLKHQYTCGSSSSHPEHAGRIQSIWSRLQETGLRGKCECIRGRKATLEELQTVHSEAHTLLYGTNPLNRQKLDSKKLLGSLASVFVRLPCGGVGVDSDTIWNEVHSAGAARLAVGCVVELVFKVATGELKNGFAVVRPPGHHAEESTPMGFCYFNSVAVAAKLLQQRLSVSKILIVDWDVHHGNGTQQAFYSDPSVLYMSLHRYDDGNFFPGSGAPDEVGTGPGVGFNVNMAFTGGLDPPMGDAEYLAAFRTVVMPIASEFAPDVVLVSSGFDAVEGHPTPLGGYNLSARCFGYLTKQLMGLAGGRIVLALEGGHDLTAICDASEACVSALLGNELDPLPEKVLQQRPNANAVRSMEKVMEIHSKYWRCLQRTTSTAGRSLIEAQTCENEEAET [chain 1 C18Y] | 5 RFU
chain 1 PRFTTGLVYDTLMLKHQCTCGSSSSHPEHAGRIQSIWSRLQETGLRGKCECIRGRKATLEELQTVHSEAHTLLYGTNPLNRQKLDSKKLLGSLASVFVRLPYGGVGVDSDTIWNEVHSAGAARLAVGCVVELVFKVATGELKNGFAVVRPPGHHAEESTPMGFCYFNSVAVAAKLLQQRLSVSKILIVDWDVHHGNGTQQAFYSDPSVLYMSLHRYDDGNFFPGSGAPDEVGTGPGVGFNVNMAFTGGLDPPMGDAEYLAAFRTVVMPIASEFAPDVVLVSSGFDAVEGHPTPLGGYNLSARCFGYLTKQLMGLAGGRIVLALEGGHDLTAICDASEACVSALLGNELDPLPEKVLQQRPNANAVRSMEKVMEIHSKYWRCLQRTTSTAGRSLIEAQTCENEEAET [chain 1 C102Y] | 4.5 RFU
chain 1 PRFTTGLVYDTLMLKHQCTYGSSSSHPEHAGRIQSIWSRLQETGLRGKCECIRGRKATLEELQTVHSEAHTLLYGTNPLNRQKLDSKKLLGSLASVFVRLPCGGVGVDSDTIWNEVHSAGAARLAVGCVVELVFKVATGELKNGFAVVRPPGHHAEESTPMGFCYFNSVAVAAKLLQQRLSVSKILIVDWDVHHGNGTQQAFYSDPSVLYMSLHRYDDGNFFPGSGAPDEVGTGPGVGFNVNMAFTGGLDPPMGDAEYLAAFRTVVMPIASEFAPDVVLVSSGFDAVEGHPTPLGGYNLSARCFGYLTKQLMGLAGGRIVLALEGGHDLTAICDASEACVSALLGNELDPLPEKVLQQRPNANAVRSMEKVMEIHSKYWRCLQRTTSTAGRSLIEAQTCENEEAET [chain 1 C20Y] | 4.1 RFU

Variants of: B2
Assay: BiFC assay (fluorescence spectrophotometer)
Details: HEK293 cells, KGN-SRD3c (1 μg) and KGC-HDAC5c mutant (1 μg), 48 hours of transfection, whole cell lysates, parent: 9.3, read off a plot

Variant | response
chain 1 LFTTGVVYDTFMLKHQCMCGNTHVHPEHAGRIQSIWSRLQETGLLSKCERIRGRKATLDEIQTVHSEYHTLLYGTSPLNRQKLDSKKLLGPISQKMYAVLPCGGIGVDSDTVWNEMHSSSAVRMAVGCLLELAFKVAAGELKNGFAIIRPPGHHAEESTAMGFCFFNSVAITAKLLQQKLNVGKVLIVDWDIRHGNGTQQAFYNDPSVLYISLHRYDNGNFFPGSGAPEEVGGGPGVGYNVNVAWTGGVDPPIGDVEYLTAFRTVVMPIAHEFSPDVVLVSAGFDAVEGHLSPLGGYSVTARCFGHLTRQLMTLAGGRVVLALEGGHDLTAICDASEACVSALLSVELQPLDEAVLQQKPNINAVATLEKVIEIQSKHWSCVQKFAAGLGRSLREAQAGETEEAETVS [chain 1 H193R] | 4 RFU
chain 1 LFTTGVVYDTFMLKHQCMCGNTHVHPEHAGRIQSIWSRLQETGLLSKCERIRGRKATLDEIQTVHSEYHTLLYGTSPLNRQKLDSKKLLGPISQKMYAVLPYGGIGVDSDTVWNEMHSSSAVRMAVGCLLELAFKVAAGELKNGFAIIRPPGHHAEESTAMGFCFFNSVAITAKLLQQKLNVGKVLIVDWDIHHGNGTQQAFYNDPSVLYISLHRYDNGNFFPGSGAPEEVGGGPGVGYNVNVAWTGGVDPPIGDVEYLTAFRTVVMPIAHEFSPDVVLVSAGFDAVEGHLSPLGGYSVTARCFGHLTRQLMTLAGGRVVLALEGGHDLTAICDASEACVSALLSVELQPLDEAVLQQKPNINAVATLEKVIEIQSKHWSCVQKFAAGLGRSLREAQAGETEEAETVS [chain 1 C102Y] | 4.7 RFU
chain 1 LFTTGVVYDTFMLKHQWMCGNTHVHPEHAGRIQSIWSRLQETGLLSKCERIRGRKATLDEIQTVHSEYHTLLYGTSPLNRQKLDSKKLLGPISQKMYAVLPCGGIGVDSDTVWNEMHSSSAVRMAVGCLLELAFKVAAGELKNGFAIIRPPGHHAEESTAMGFCFFNSVAITAKLLQQKLNVGKVLIVDWDIHHGNGTQQAFYNDPSVLYISLHRYDNGNFFPGSGAPEEVGGGPGVGYNVNVAWTGGVDPPIGDVEYLTAFRTVVMPIAHEFSPDVVLVSAGFDAVEGHLSPLGGYSVTARCFGHLTRQLMTLAGGRVVLALEGGHDLTAICDASEACVSALLSVELQPLDEAVLQQKPNINAVATLEKVIEIQSKHWSCVQKFAAGLGRSLREAQAGETEEAETVS [chain 1 C17W] | 4.4 RFU
